# According to the domain aggregation screens of Martell et al. (2025):
# Assay: soluble fraction after stress (log2 fold change); higher = more stays soluble; pooled small domains, quantitative proteomics
# Details: stress: 50 degC
# Summary of the method: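 The stress applied to every library was 50°C. These custom libraries of small protein domains were pooled and measured at high throughput with quantitative proteomics as the read-out. Aggregation propensity is expressed as the base-two logarithm of the fold change in how much of each protein remains soluble. The higher the value, the more of that protein stays in solution.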
row,Sequence,soluble fraction (log2)
1,HMKNTLDAYIRYLSNFLSRNNYPEAEDLSFINARADQAYEVFLEARRGGVDVSTAEELAMIALMQGY,-1.13
2,HMQILNVFSKHGIKPISPQIGDKFDPQLHEAMFEAPVPGTKAGDIIEVSSEGFMLYDRLLRPAHVGVSSN,0.0206
3,HMNAEQLAQVRRQKIGFIFQDFRLFPEYTVRDNILIPFYLDHRAPDEQMLHKLTGILGIAGKLHSRPAQL,-0.0698
4,HMTIDNPESQKIMDMVPFFFQSRNYDEAIEALTYVIEQEPQFSEAYNKRATFYFMMGDLENSMKDIEITLA,-0.401
5,HMSGYAIVNNQPGRTLNLRNSPSQSNNIIGQIPSGTRLQLISRGETWSEVIFQTTRGFVMSSFLRFET,-0.809
6,HMELEQLKSQLTGFLKANREQIFTAQNLADGLRMTDSQGYKQVVNALNASVRDGDVIDIKNGYQYNKN,0.0729
7,HMGSIRDIIVQYLSKFDDPQPAAKIVEYVQQYRDTTESSIRSSMGSGDQFVQFSGGLYGLKDKTYAAWYSI,-0.321
8,HMVKIVWSKEGPYVGTRVRRYFSQGPVDGTVVMYAKPQKGDDVALWRISHDDGDEEDLEEQELRLAID,-1.65
9,HMVNYKEILRLAHEGYSQRQIATNIGNSRNTVSEVLDAAKAANIAWPPEETVTNEQLGAILFPNRH,0.204
10,HMLVLAENMDVIFTRRTLDDHVVVDYKTTIGEMVKNDEIKGENMDELISAVEKDGYELVSSTSGEIIFLND,-1.2
11,HMVEFLMESTNGMYGIVKEGSSYYVQKGINESSLDYIGGMFMKDKNRFSSYSTALKRLELISGQET,-0.328
12,HMLPNLWVMGPGDHLWRVAEVAMTKHLGRPVANHEIDGYWRRLVALNRESLIDPDNPDLVFAGQVIELPPF,-2.32
13,HMVTDVDYSTFLSQVEEGKVESVTIEDGEILFKGKDENGEARWYITGEMNDPNLVERLKDKVPSFNAPA,0.0853
14,HMDAIAYLGSRLKEIRLKSGLSLREIARQLDVSPSFISQIENGKSQPSVATLYAFAKLLNVPVDVLFQPS,-1.05
15,HMAVENTGLSKRELEILQMMARGMSNQEIGDALFISLSTVKTHVASIFSKLQAVRRTQAVGIAKSLKII,-0.917
16,HMKGSIFLDEATKMVDNSALKSLNTFLEEYARETNNQIFLISHQETPAEVTQIKLKKVGGETSYE,0.124
17,HMNPNEVQIPDLVNKTEDEAEQILKDLKLKLVVKSEEYNENIEKGKIISQDPPYQENYTIKEHSEISIVIS,0.42
18,HMITKEDVANKKVNLLFFGNFHKMKLPDFEWGITEMMQDRDYLYGSLTKDLYFLGLVLDRKYKI,0.0334
19,HMSEQVTMIDVEGKTETEAKKALEDLGLKVEITYESADAAAGTVIGQDVKAGSTVSEGSRVTLTVSGQ,0.0626
20,HMNLNIGNNIKNIRKSKNMTQTDFAELMGLSRSYIGDLENNRSNPSIKTLEAIARALDVPIVALIN,-0.399
21,HMPIQLLSEKYMDEHWDELDKDEVSLYQNMSIRFLLKHEDDINWKLYSTNPFISIDTIDFFKDKISWVNI,-2.57
22,HMSVDDEQLLKIIDDIFQQNPQAVTDAKTDSNAIHFLIGQVMKETKGHADHAISKEIIEKKLS,0.00481
23,HMSHGNAALTPRQRLRLARLVVDDQWSVSAAAEFFRVSYPTAAKWARRYVELGPAGMADRSS,-1.42
24,HMLKLEDIKKDAQVKGIVDGQIVRIVTVEPIGDHALTVYYKDHQGQFAERMLFRSDELNLELATA,-0.00641
25,HMDIMLLLYKNIKKRRLEIGMSQEELAQKTGYTSRSSIAKIEKGEVDLQLSKIKLFANALRVSQSELMG,-3.39

row,Sequence,soluble fraction (log2)
1,HMLDVNLIFSRPGFSLSAAFTLHAGGITVLRGDSGSGKTTLADLLSGAIAPQKGRILSDGDIWFDAASGIN,0.22
2,HMPSKTFYNLSQEKQQKIIDASEKEFSNNLYQDVSLNQIIKNSNISRGSFYMYFTDKEDLYFYLLNEY,0.275
3,HMFMSDDDIRILVKEWLQSQNRKSYQLAEEIGIRPQTFYAQMSVRKISANTKKALSRIIPGL,-0.86
4,HMENTIPSVIGRTLSDGVFLLESYGYVKGNVSEEFSEMPIGVIIRQFPGAGSAAEAGTRVDLVVSKGEEIV,-0.0523
5,HMDADRLSPREREMLQFIARGQSNKEIARALELAESTVKIHVQNMLRKLNLSSRVQAAVFAVENGLG,-0.109
6,HMRNMTDYLTIVRAVYGGLSQRQAATTYHVSRNTVSLLIRHAKNQGWLTVEDLSRADAAAFSPA,-0.517
7,HMDVSASEVGLTGRQTDVLSLMVKGRSNRDIAELLGLSEGTVKIHITAIFKALGVASRTQALVAAARLGLK,-0.156
8,HMLLNLSPIETQVLRLIQQDKKVTYESIGKELTIGQTKVYKVLGHLKELNVIERIGGRTYGHWHILL,-1.03
9,HMDYNSYGLTERELELVDYVLKGYSRKEMAEASGLKVNTIGSYMKKIYRKLNIHNRTELKERFI,-0.37
10,HMVLVGERRQKILEVVSSGKAVTVEELSRILHVSPSTVRRDLRFLESRGLLYRTHGGAMPPV,-1.1
11,HMEEGKVKRMAMDMVDAFYDKVSAMVDDNNDLGRSVVDAWDDEEENPPEYMLDDETRAILVNAGKIEPE,0.0748
12,HMADDFISTLFSEGIIIDTEVKQFAERQGSPLQFVRHIASNLPEPRDIITMGEVRSVMREGA,-0.149
13,HMKINKQHLAFQIFGIRAKLGLSMEQFGELLGANKSSVSGWERGTVVPSSQRLKKIAELGKISLAELLTP,-1.23
14,HMSGLGELTPRELEVLELMAQGLSNSQIAGRLFLSGAAVAKHVSSIFSKLGFEPGDENRRVRAILAFLNR,-0.422
15,HMPTQGELAILRVLWEQGPSTVRAVWEKLNSQSGTGYTTALKLMQIMAQKGLVSRDESQKTHVYRA,-1.42
16,HMETVQTGTVKVSNSLNVRSGAGTNYSVLGSLSNGAKVEIVGTSGSWYKIKYGSGYGYVSKDYVTVS,-0.0163
17,HMGTLPSLAPSGEKTVRLPNLAGWSLRETMEILQKGGLQLLPIGSGISFKQSPPPGTTLNEGDAVTVWF,0.0292
18,HMLLTHEEQIVKRGWQAPVGPFAILDSRAEAMHGDLEMLRGDREAAEQHFRRAWQIIGPIVEQ,-0.0656
19,HMKRTKLEEATEWLRDRLSDGVKYNGEELLREGESADMARRTLRRAAQELGVIIERERGARGRWFWSLP,-0.515
20,HMSNFGALLRMRRLEAGLSYRGLAEQSGLARATLVNLEQGLTKPSPLTMRRLASVKALRLTEL,-2.26
21,HMNDADAHASVDAALKHLEALAETTPEVRAALELVRRGPDGRVTVDSFARVAEALREISIAVGAS,0.107
22,HMDNEIMYPIQINGKVRAELFVSTERAMDKQYVLEQAKANEKIQGYLEGNRLVKEIFVPKRIVNLVIAP,0.197
23,HMEPMTDQQILEGFAEFKRQNPDLMNRPATQAIVNLTLPGGTPISFRSGAGAAALNQYLESIGMRAGP,0.202
24,HMTGESVPAPLSGTIFKILVAPGEQVEEGQTVIILEAMKMETEISAPRSGVVGAINIKEGDSVQVGQSLFT,0.0706
25,HMTNVVSKNKAKEIAMNIINDTVLQGQTAATFKEIVKANGVYVVKIEIQGQEYTSYITKDGKIVFPYGVEV,-0.451

row,Sequence,soluble fraction (log2)
1,HMRKVTDTHELSSVVKSVIDQWEEKAAEYRAGKSGLLGFFVGEVMKKTGGAADPEAAKSLLQDRLD,0.18
2,HMRSFADEGTVEEWIKQAIRENEAAVADYRKGKETAVKFLMGQVMRLSKGEANPADLEDKIKAKLD,0.0903
3,HMAVTFPYTAYATDAVRLRERPSSSADVLAVIRKGDAVLVTGTDGNYAIVDYEGKRGYVVSSFIAT,-0.317
4,HMLSDSDTLRDLYLSEQIWNVGDLIRVKGKNDDTHPSWEIIRRGTNYITAIDENYKSHKVWLHDIDI,-1.17
5,HMNDIDRFIEALIEQDTLPGTNSRINEDVISEMKMMTSVEDIKAYAIATVGLTGGQVNNALINSGL,-0.0823
6,HMTDVRFIDIPVTEHHPWNGMKVRDLQLPPGTLLVFLSHPGEKNTVPHGETVLRSGDVLVLGATAYTGQ,-0.0558
7,HMNHHEIIMKNIDTLLKEKNISISKLEKSLGISNGYISRLRNGKYNFSLDLLLKLAKKFKISIDYLLTDFD,0.00249
8,HMGVKTDKYYYQMATETRVNKHYGLSNQYIATLISEYPRSPLIPNASILSKKNNADLALIDQSINQR,-0.397
9,HMGIQYVASGHYARMETDAQGVSRLFPPESGAPDESDRLAALSPEVLTRLILPLGDFAPEDVEEMAVD,0.102
10,HMSDVVFRINANGLNVSGLANGERVSVYDTTGKLVTTAVSTQDNGTLNLPLKQSGGIYIARTQSGVSFKFT,-0.411
11,HMDNNFIQSLYPIAIGISKNQLDPWDLINGWVEYYLKNKEKYINHPNLKAVAVLKMKGLLIDHFRKS,-3.57
12,HMQNAMQKELIDAFQKAYPDLDITKIELVYGTYYEVEAMNSTTEFTYRYDQNSKTFILAEQDNADP,-0.202
13,HMNSTVKVPNVVGMSVPQAKALLEQNHLLVQGIREVSTDKAPAGIVINQLPYSDAEVKEERHIYLTVSKGK,≥ 0.62
14,HMSPKYLELVRWINTQIQEKKLTAGQKMYSENELKEMFGVSRQTVRHAISVLEGEGMIRRVRGSGTYINDN,-1.83
15,HMQTPVTVGDTMPNLIGTPKRLLLELLNRTDITVKLTGDGYVTAQSPAAGTPIAKGMIIELSL,-0.296
16,HMSSRLEIEITSKIDDLSHTWRAVGAKQPKGNIKSSLLPSGVKVGETFRVEADFLLDGIEIVSVLPP,-1.44
17,HMGETWYEILEISSDATTEEIRQAYFEQARQYHPDTNPGELAREWFYQVQEAYETLSDPDRRRQYDESIKG,-0.402
18,HMQNVFARKNLTSVSVDKLGEEEILLFKQSFESKNLTSSEALRDLSKKGMSEAELRKLKVRLTQL,-0.074
19,HMQTKMVYSDLVNSIKSEQVSSMLVSGNTVTVTLTNGDKAKVKIPSLDTLQADVGKEMNDQMDKGTLKQE,0.181
20,HMQYTTDEVRERVLSVLNQLLLRWIVREGKDMFNIQANAVEISEGIKGELNTELEKIGLAATGFQIDSV,-0.52
21,HMTSSQLYLIEEDMEGERLDAFLAEVIADLSRTAIKDLISNGRVLVDGQARKPSYRVKEGEQVLIHVPEAR,-0.0195
22,HMTVTMADISQAYNEKRYLTTISLSNTYLTFAKPTTELLSIRYRTYFIIGKYAESLTEIAKL,-0.173
23,HMSMSLQFLSRRIRLQREKRGLKQHDIAHALQISPQAVSKWERGENAPDIALLRPLAGLLGVSIDWLMGGD,-2.15
24,HMVLVKFEWTPPDARILVDDHPVEARDKEMELPEGTHHVQALAPRGSGYESTVTDIEVRQGMDPVRIAL,-0.182
25,HMEKTIQIYDNIIIKDFAEKMEVSPSQVITKLIGLGVMANLNQPIDINSAVIVGKEFGFNVESM,-0.674
